Test results from the supplement of paper PMC10567573.

B1: FAM164C (parent)
chain: YPHCTGISQQDPESDSQGQGNGLF

Variants of: B1
Experiment: protein stability index of a GFP-peptide fusion (GPS, HEK-293T) (PSI 1-6); higher = more stable
Details: c terminus: a fixed tail appended
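Further: lentivirally expressed fusions sorted by FACS into six bins by GFP to DsRed ratio, PSI derived from sequencing read proportions per bin multiplied by bin number.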

Going from YPHCTGISQWDPESDSQGQGNGLF [Q10W] to YPHCTGISQYDPESDSQGQGNGLF [Q10Y], the protein stability index rises from 2.87 to 3.07.

Compared with YPHCTGISQFDPESDSQGQGNGLF [Q10F], YPHCTGISQHDPESDSQGQGNGLF [Q10H] is higher in protein stability index: 3.19 for the first, 3.65 for the second.

Going from YPHCTGISQRDPESDSQGQGNGLF [Q10R] to YPHCTGISQCDPESDSQGQGNGLF [Q10C], the protein stability index falls from 3.54 to 3.1.

Compared with YPHCTGISQEDPESDSQGQGNGLF [Q10E], YPHCTGISQDDPESDSQGQGNGLF [Q10D] is lower in protein stability index: 3.87 for the first, 3.68 for the second.

First: YPHCTGISQSDPESDSQGQGNGLF [Q10S]
Second: YPHCTGISQKDPESDSQGQGNGLF [Q10K]
The protein stability index of the first is lower: 3.48 for the first, 4 for the second.

Going from YPHCTGISQGDPESDSQGQGNGLF [Q10G] to YPHCTGISQNDPESDSQGQGNGLF [Q10N], the protein stability index rises from 3.88 to 4.05.

First: YPHCTGISQPDPESDSQGQGNGLF [Q10P]
Second: YPHCTGISQMDPESDSQGQGNGLF [Q10M]
The protein stability index of the first is lower: 3.78 for the first, 3.84 for the second.

First: YPHCTGISQADPESDSQGQGNGLF [Q10A]
Second: YPHCTGISQLDPESDSQGQGNGLF [Q10L]
The protein stability index of the first is higher: 3.48 for the first, 2.96 for the second.

YPHCTGISQIDPESDSQGQGNGLF [Q10I] and YPHCTGISQTDPESDSQGQGNGLF [Q10T] are the same in protein stability index: 3.64 for the first, 3.64 for the second.

First: YPHCTGISQVDPESDSQGQGNGLF [Q10V]
Second: YPHCTGISQQNPESDSQGQGNGLF [D11N]
The protein stability index of the first is higher: 3.74 for the first, 3.62 for the second.

Going from YPHCTGISQQLPESDSQGQGNGLF [D11L] to YPHCTGISQQPPESDSQGQGNGLF [D11P], the protein stability index rises from 3.37 to 3.85.

First: YPHCTGISQQHPESDSQGQGNGLF [D11H]
Second: YPHCTGISQQWPESDSQGQGNGLF [D11W]
The protein stability index of the first is higher: 3.12 for the first, 2.32 for the second.

First: YPHCTGISQQEPESDSQGQGNGLF [D11E]
Second: YPHCTGISQQKPESDSQGQGNGLF [D11K]
The protein stability index of the first is higher: 4.2 for the first, 3.85 for the second.

Going from YPHCTGISQQCPESDSQGQGNGLF [D11C] to YPHCTGISQQIPESDSQGQGNGLF [D11I], the protein stability index falls from 3.15 to 3.1.

First: YPHCTGISQQSPESDSQGQGNGLF [D11S]
Second: YPHCTGISQQQPESDSQGQGNGLF [D11Q]
The protein stability index of the first is lower: 3.58 for the first, 3.73 for the second.

First: YPHCTGISQQYPESDSQGQGNGLF [D11Y]
Second: YPHCTGISQQMPESDSQGQGNGLF [D11M]
The protein stability index of the first is lower: 2.94 for the first, 3.41 for the second.

First: YPHCTGISQQGPESDSQGQGNGLF [D11G]
Second: YPHCTGISQQTPESDSQGQGNGLF [D11T]
The protein stability index of the first is higher: 3.18 for the first, 3.17 for the second.

Compared with YPHCTGISQQAPESDSQGQGNGLF [D11A], YPHCTGISQQRPESDSQGQGNGLF [D11R] is lower in protein stability index: 3.66 for the first, 3.29 for the second.

Compared with YPHCTGISQQVPESDSQGQGNGLF [D11V], YPHCTGISQQFPESDSQGQGNGLF [D11F] is lower in protein stability index: 3.5 for the first, 2.96 for the second.

Going from YPHCTGISQQDDESDSQGQGNGLF [P12D] to YPHCTGISQQDSESDSQGQGNGLF [P12S], the protein stability index rises from 3.91 to 3.98.

First: YPHCTGISQQDLESDSQGQGNGLF [P12L]
Second: YPHCTGISQQDRESDSQGQGNGLF [P12R]
The protein stability index of the first is higher: 3.65 for the first, 3.18 for the second.

First: YPHCTGISQQDVESDSQGQGNGLF [P12V]
Second: YPHCTGISQQDFESDSQGQGNGLF [P12F]
The protein stability index of the first is higher: 3.96 for the first, 3.56 for the second.

Going from YPHCTGISQQDAESDSQGQGNGLF [P12A] to YPHCTGISQQDIESDSQGQGNGLF [P12I], the protein stability index falls from 3.95 to 3.51.

Going from YPHCTGISQQDYESDSQGQGNGLF [P12Y] to YPHCTGISQQDTESDSQGQGNGLF [P12T], the protein stability index rises from 3.54 to 3.74.

First: YPHCTGISQQDNESDSQGQGNGLF [P12N]
Second: YPHCTGISQQDEESDSQGQGNGLF [P12E]
The protein stability index of the first is lower: 3.48 for the first, 4.08 for the second.

Compared with YPHCTGISQQDHESDSQGQGNGLF [P12H], YPHCTGISQQDWESDSQGQGNGLF [P12W] is lower in protein stability index: 3.73 for the first, 3.27 for the second.

Compared with YPHCTGISQQDCESDSQGQGNGLF [P12C], YPHCTGISQQDKESDSQGQGNGLF [P12K] is lower in protein stability index: 3.77 for the first, 3.57 for the second.

Going from YPHCTGISQQDGESDSQGQGNGLF [P12G] to YPHCTGISQQDMESDSQGQGNGLF [P12M], the protein stability index rises from 3.45 to 3.6.

Compared with YPHCTGISQQDQESDSQGQGNGLF [P12Q], YPHCTGIPQQDPESDSQGQGNGLF [S8P] is higher in protein stability index: 3.71 for the first, 3.91 for the second.

First: YPHCTGIHQQDPESDSQGQGNGLF [S8H]
Second: YPHCTGIWQQDPESDSQGQGNGLF [S8W]
The protein stability index of the first is higher: 3.65 for the first, 1.84 for the second.

Compared with YPHCTGILQQDPESDSQGQGNGLF [S8L], YPHCTGIEQQDPESDSQGQGNGLF [S8E] is higher in protein stability index: 3.35 for the first, 4.17 for the second.

Going from YPHCTGIIQQDPESDSQGQGNGLF [S8I] to YPHCTGIYQQDPESDSQGQGNGLF [S8Y], the protein stability index falls from 3.59 to 2.75.

Compared with YPHCTGIVQQDPESDSQGQGNGLF [S8V], YPHCTGIKQQDPESDSQGQGNGLF [S8K] is higher in protein stability index: 3.73 for the first, 4.15 for the second.

First: YPHCTGIRQQDPESDSQGQGNGLF [S8R]
Second: YPHCTGIFQQDPESDSQGQGNGLF [S8F]
The protein stability index of the first is higher: 3.57 for the first, 2.69 for the second.

Compared with YPHCTGIMQQDPESDSQGQGNGLF [S8M], YPHCTGIDQQDPESDSQGQGNGLF [S8D] is higher in protein stability index: 3.33 for the first, 3.91 for the second.

Compared with YPHCTGITQQDPESDSQGQGNGLF [S8T], YPHCTGINQQDPESDSQGQGNGLF [S8N] is lower in protein stability index: 3.74 for the first, 3.39 for the second.

Going from YPHCTGIGQQDPESDSQGQGNGLF [S8G] to YPHCTGIQQQDPESDSQGQGNGLF [S8Q], the protein stability index rises from 3.52 to 3.95.

Compared with YPHCTGISQQDPASDSQGQGNGLF [E13A], YPHCTGISIQDPESDSQGQGNGLF [Q9I] is higher in protein stability index: 3.46 for the first, 3.71 for the second.

First: YPHCTGISAQDPESDSQGQGNGLF [Q9A]
Second: YPHCTGISRQDPESDSQGQGNGLF [Q9R]
The protein stability index of the first is higher: 4.06 for the first, 3.68 for the second.

Going from YPHCTGISMQDPESDSQGQGNGLF [Q9M] to YPHCTGISGQDPESDSQGQGNGLF [Q9G], the protein stability index rises from 3.49 to 3.85.

Compared with YPHCTGISFQDPESDSQGQGNGLF [Q9F], YPHCTGISKQDPESDSQGQGNGLF [Q9K] is higher in protein stability index: 3.05 for the first, 3.42 for the second.

Going from YPHCTGISTQDPESDSQGQGNGLF [Q9T] to YPHCTGISHQDPESDSQGQGNGLF [Q9H], the protein stability index falls from 3.63 to 3.58.

First: YPHCTGISDQDPESDSQGQGNGLF [Q9D]
Second: YPHCTGISWQDPESDSQGQGNGLF [Q9W]
The protein stability index of the first is higher: 3.91 for the first, 2.48 for the second.

Compared with YPHCTGISPQDPESDSQGQGNGLF [Q9P], YPHCTGISCQDPESDSQGQGNGLF [Q9C] is lower in protein stability index: 3.67 for the first, 3.43 for the second.

First: YPHCTGISSQDPESDSQGQGNGLF [Q9S]
Second: YPHCTGISEQDPESDSQGQGNGLF [Q9E]
The protein stability index of the first is higher: 3.97 for the first, 3.89 for the second.

Going from YPHCTGISYQDPESDSQGQGNGLF [Q9Y] to YPHCTGISNQDPESDSQGQGNGLF [Q9N], the protein stability index rises from 3.11 to 3.5.

Compared with YPHCTGISVQDPESDSQGQGNGLF [Q9V], YPHCTGISLQDPESDSQGQGNGLF [Q9L] is lower in protein stability index: 3.19 for the first, 2.98 for the second.
